In one data set the target is GFP (UniProt P42212 P42212:1-238). Kind of data set: pulldown; serial microcolumns, qPCR; 10 mM HEPES-KOH pH 7.6, 125 mM NaCl, 25 mM KCl, 5 mM MgCl2, 0.02% Tween-20; GFP 0.6 ug/uL resin. The conditions noted are these: tags: N-terminal hexahistidine; immobilised on Ni-NTA Superflow resin. Here is the method: (§1) The order of targets was as follows: Empty, GSH, Ni-NTA, Amylose, His-GFP, GST-hHSF1, His-NELF-E, His-UBLCP1, and is illustrated in FIG. 41 in section I.
(§2) The RNA pools were injected at a rate of 33 μL/min for 30 min with a 10 μL aliquot of each pool set aside and used as a standard for quantitative polymerase chain reaction (qPCR) analysis. All buffers and solutions were degassed prior to use and introduced into the microcolumns via programmable multichannel syringe pumps (Harvard Apparatus) with MEDUSA placed onto a 96-well format liquid waste reservoir. The microcolumns were reconfigured to run in parallel by removing the caps and silicone layers permitting the connectivity of microcolumns, and reassembling the device with the appropriate caps for a parallel configuration, and washed with 3 mL of binding buffer at a rate of 300 μL/min. The RNA/RNA-protein complexes were eluted directly into a 96-well microplate from the individual microcolumns by flowing elution buffer [binding buffer+50 mM ethylenediaminetetraacetic acid (EDTA pH 8.0) for selections with Ni-NTA resin; binding buffer+10 mM glutathione for selections with GSH resin; binding buffer+10 mM maltose for selections with amylose-resin] at a rate of 50 μL/min for 12 min. […]

The target of a further data set is T1, NELF-E (Drosophila, UniProt P92204 P92204:1-280).
T1 sequence: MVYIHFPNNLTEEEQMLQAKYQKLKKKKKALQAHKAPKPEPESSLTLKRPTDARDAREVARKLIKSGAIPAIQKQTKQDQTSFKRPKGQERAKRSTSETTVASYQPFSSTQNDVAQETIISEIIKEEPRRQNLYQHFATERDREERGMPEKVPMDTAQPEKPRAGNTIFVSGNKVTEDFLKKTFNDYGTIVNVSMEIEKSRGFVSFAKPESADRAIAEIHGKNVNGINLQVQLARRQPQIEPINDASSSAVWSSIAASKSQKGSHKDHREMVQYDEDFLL
Kind of data set: pulldown; serial microcolumns, qPCR; enrichment falls above 0.6 ug/uL NELF-E, de-enriched at 10 ug/uL. The settings on record: tags: N-terminal hexahistidine; immobilised on Ni-NTA Superflow resin.

The target in data set [1] is hHSF1 (heat shock factor 1) (UniProt Q00613 Q00613:1-529). Kind of data set: pulldown; serial microcolumns, qPCR; same buffer, 5 mM MgCl2. The conditions noted are these: tags: N-terminal GST; immobilised on glutathione-agarose. The protocol:
as §1, §2

Sequence of hHSF1 (heat shock factor 1) (Q00613 whole entry, one chain of several): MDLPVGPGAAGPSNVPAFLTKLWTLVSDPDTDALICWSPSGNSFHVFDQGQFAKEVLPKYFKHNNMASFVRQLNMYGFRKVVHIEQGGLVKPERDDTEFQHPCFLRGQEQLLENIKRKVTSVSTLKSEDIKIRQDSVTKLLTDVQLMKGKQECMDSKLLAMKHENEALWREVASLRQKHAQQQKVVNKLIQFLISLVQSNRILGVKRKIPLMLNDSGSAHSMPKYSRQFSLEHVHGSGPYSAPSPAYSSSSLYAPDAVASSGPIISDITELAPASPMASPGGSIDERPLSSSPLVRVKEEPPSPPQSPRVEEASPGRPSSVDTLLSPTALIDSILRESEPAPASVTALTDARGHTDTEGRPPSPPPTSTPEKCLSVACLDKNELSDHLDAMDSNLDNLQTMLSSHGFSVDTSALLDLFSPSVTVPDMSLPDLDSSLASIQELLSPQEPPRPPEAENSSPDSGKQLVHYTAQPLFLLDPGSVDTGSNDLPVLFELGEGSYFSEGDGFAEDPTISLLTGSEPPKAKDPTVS

B1: GFPapt (AP3-1) (ssRNA)
RNA: AGCUUCUGGACUGCGAUGGGAGCACGAAACGUCGUGGCGCAAUUGGGUGGGGAAAGUCCUUAAAAGAGGGCCACCACAGAAGCU
Turning to B1, in the data set with GFP, the binding signal is 750 fold enrichment over N70 library.

B2: NELFapt (Napt1) (ssRNA)
RNA: GGGAAUGGAUCCACAUCUACGAAUUCCCAACGACUGCCGAGCGAGAUUACGCUUGAGCGCCCCACUGAGGAUGCCCACGGGCGAUUGGGGCACGGCUUCACUGCAGACUUGACGAAGCUU
As to B2, the binding signal in the data set with NELF-E was 262 fold enrichment over N70 library.

B3: HSFapt (hHSF2-R5-2) (ssRNA)
RNA: GGGAAUGGAUCCACAUCUACGAAUUCAAUCAAGUCCCCAGACUCAGCAACACUGGACAGCGAUAUGCAGAUAACCAAGACCAAUUCACUCCAGUUCACUGCAGACUUGACGAAGCUU
For the molecule B3, the binding signal in data set [1] is 232 fold enrichment over N70 library.

These data come from patent US20150166987, “PROGRAMMABLE AND RECONFIGURABLE MICROCOLUMN AFFINITY CHROMATOGRAPY DEVICE, SYSTEM, AND METHODS OF USE THEREOF” (CORNELL UNIVERSITY, published 2015).
